The target of this test is Rac1 (Homo sapiens, UniProt P63000). The experiment in a line: GST pull-down.

Experimental findings from publication PMC5470993 (2017) are described below.

B1: PAK1 RBD (protein)
chain: KKEKERPEISLPSDFEHTIHVGFDAVTGEFTGMPEQWARLLQTSNITKSEQKKNPQAVLDVLEFYNSKKTSNSQKYMSFTDKSA
Turning to B1, the Kd (as a rule, the equilibrium constant for the complex coming apart) is 243 nM. This lies in the sub-micromolar range.
